The record followed here is patent publication US20240117030A1 (Pfizer, published 2024).

Residue numbers refer to the chain shown, from its start.

The target in assay [1] is T1, mouse IL-13 (mouse, UniProt P20109 26-131, limits assumed).
T1 construct: also called mu IL-13
T1 sequence (looked up): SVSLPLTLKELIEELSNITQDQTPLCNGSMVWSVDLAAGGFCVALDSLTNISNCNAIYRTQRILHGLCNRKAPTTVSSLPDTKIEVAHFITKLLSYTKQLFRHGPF
The assay can be described thus: SPR (Biacore 8K+), trispecific captured on anti-human Fc on a CM5 chip, 200 nM IL-13 injected for 60 s. (SPR reads the build-up and loss of mass on a sensor chip optically.)
Description: (§1) All experiments were performed using a Biacore 8K+ instrument (GE HealthCare, Marlborough, MA). Anti-human Fc (Jackson Immunoresearch) or anti-mouse Fc (GE HealthCare, Marlborough, MA) was immobilized on a CM5 sensor chip using a standard amine coupling protocol provided by GE HealthCare. […] The association and dissociation phases were 60 seconds and 300 seconds, respectively. At the end of the dissociation phase, the surface containing anti-human or anti-mouse Fc was regenerated using one 30 second pulse of 3M MgCl₂ followed by one 30 second pulse of 10 mM glycine pH 1.7.

A further assay addresses T2, rat IL-13 (rat, UniProt P42203 19-131, limits assumed).
T2 construct: also called rt IL-13
T2 sequence (looked up): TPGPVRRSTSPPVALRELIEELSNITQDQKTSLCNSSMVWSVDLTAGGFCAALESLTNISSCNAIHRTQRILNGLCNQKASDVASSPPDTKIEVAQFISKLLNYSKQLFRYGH
Described as above.

The target of the next assay is T3, murine IL-33 (mouse, UniProt Q8BVZ5 109-266).
T3 construct: also called mouse IL-33 WT
T3 sequence (looked up): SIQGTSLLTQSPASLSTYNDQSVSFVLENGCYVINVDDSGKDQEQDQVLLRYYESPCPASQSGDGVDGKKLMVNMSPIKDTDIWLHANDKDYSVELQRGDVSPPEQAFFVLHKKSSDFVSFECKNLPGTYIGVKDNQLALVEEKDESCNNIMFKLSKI
Nature of the assay: SPR (Biacore T-200, 37 C, buffer with 3 mM DTT), trispecific captured on Protein A/G on a CM5 chip, 200 nM IL-33 injected for 60 s (concentration from Example 75).

In another assay the target is T4, rat IL-33 (rat, UniProt Q66H70 109-264, limits assumed).
T4 construct: also called rat IL-33 WT
T4 sequence (looked up): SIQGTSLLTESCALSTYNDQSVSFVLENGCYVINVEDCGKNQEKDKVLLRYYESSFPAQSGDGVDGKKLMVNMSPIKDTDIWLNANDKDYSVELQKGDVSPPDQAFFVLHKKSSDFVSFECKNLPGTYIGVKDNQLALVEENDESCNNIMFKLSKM
Described as above.

For a further assay, the target named is T5, cynomolgus monkey IL-4 (cynomolgus monkey, UniProt P79339 25-153).
T5 construct: mature; also called cy IL-4; cyno IL-4
T5 sequence (looked up): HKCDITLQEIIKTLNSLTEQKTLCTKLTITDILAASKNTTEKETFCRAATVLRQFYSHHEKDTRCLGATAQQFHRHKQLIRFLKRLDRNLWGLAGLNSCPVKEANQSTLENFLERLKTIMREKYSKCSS
Nature of the assay: KinExA, fixed antigen. On the technique in general: In KinExA the mixture passes briefly over coated beads that capture the unbound partner.

The target of assay [2] is T6, cynomolgus monkey IL-13 (cynomolgus monkey, UniProt Q0PW92 19-132).
T6 construct: also called cy IL-13; cyno IL-13; not shown: N-terminal FLAG tag of the Pfizer-made protein
T6 sequence (Q0PW92 entry or part of it limits assumed): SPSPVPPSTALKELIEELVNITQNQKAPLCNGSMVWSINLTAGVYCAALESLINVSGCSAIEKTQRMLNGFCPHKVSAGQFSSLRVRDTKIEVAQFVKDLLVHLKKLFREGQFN
The assay can be described thus: KinExA, fixed antigen.

The target in assay [3] is T7, human IL-13 (human, UniProt P35225 35-146). The assay can be described thus: cell-based or functional assay.
T7 sequence (P35225 35-146 limits assumed, form in doubt): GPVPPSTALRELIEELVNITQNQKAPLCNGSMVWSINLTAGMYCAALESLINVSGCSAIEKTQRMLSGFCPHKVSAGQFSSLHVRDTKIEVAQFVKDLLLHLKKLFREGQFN
A further assay deals with T8, human IL-4 (human, UniProt P05112 25-153).
T8 sequence (looked up): T5 sequence (looked up) with K26E, I29V, L33F
The assay can be described thus: cell-based or functional assay.

Assay [4] concerns the target T6, cynomolgus monkey IL-13. Nature of the assay: cell-based or functional assay.
A further assay has as its target T9, mouse IL-4 (mouse, UniProt P07750 23-140).
T9 construct: also called mu IL-4
T9 sequence (looked up): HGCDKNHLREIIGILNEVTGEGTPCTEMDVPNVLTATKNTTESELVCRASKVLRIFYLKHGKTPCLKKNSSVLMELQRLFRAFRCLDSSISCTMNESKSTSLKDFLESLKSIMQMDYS
The assay can be described thus: SPR (Biacore 8K+), trispecific captured on anti-human Fc on a CM5 chip, 200 nM IL-4 injected for 60 s.

The target of another assay is T10, rat IL-4 (rat, UniProt P20096 25-147, limits assumed).
T10 construct: also called rt IL-4
T10 sequence (looked up): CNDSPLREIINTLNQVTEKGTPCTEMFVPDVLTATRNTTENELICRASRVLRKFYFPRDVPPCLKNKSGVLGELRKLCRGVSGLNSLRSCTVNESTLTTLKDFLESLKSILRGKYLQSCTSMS
The description is as above.

For assay [5], the target named is T11, biotinylated human TSLP (Pfizer) (human, UniProt Q969D9 29-159, biotinylated (Avi tag by Example 2)).
T11 construct: Antigen of the KinExA fixed antigen assay
Nature of the assay: KinExA, fixed antigen format, solution affinity, mean.
Description: (§2) Samples were prepared in PBS containing 0.1% sodium azide and 1.0 mg/ml BSA. A fixed antigen assay method was used to determine binding affinity. […] Data analysis was performed with the KinExA Pro software version 4.3.11 (Sapidyne). […] The ‘drift correction’ option was selected when responses varied between replicate injections. Two curves were obtained in independent experiments and analyzed using the ‘n-curve analysis’ tool to obtain global best fit values for the KD and active concentration of biotinylated TSLP. The software reports each best fit value along with a 95% confidence interval).

In assay [6] the target is T12, biotinylated cynomolgus monkey TSLP (Pfizer) (cynomolgus monkey, UniProt A0A7N9CAT7 29-159, biotinylated (Avi tag by Example 2)).
T12 construct: Antigen of the KinExA fixed antigen assay
T12 sequence (A0A7N9CAT7 entry or part of it): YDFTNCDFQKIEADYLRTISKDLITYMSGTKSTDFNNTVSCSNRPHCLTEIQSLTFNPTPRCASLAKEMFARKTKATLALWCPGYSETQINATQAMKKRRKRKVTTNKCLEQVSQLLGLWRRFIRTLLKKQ
Described as above.
Description: as §2

Assay [7] concerns the target recombinant cynomolgus monkey TSLP (Pfizer) (cynomolgus monkey, UniProt A0A7N9CAT7 29-159). Nature of the assay: cell-based or functional assay.
Assay [8] has as its target T7, human IL-13. Nature of the assay: SPR 37°C, antibody captured by anti-human IgG, human IL-13 1.56-50 nM.
Description: The affinity values (KD) were determined using Surface Plasmon Resonance (SPR) for 10 lead variants identified from bioassay screening.
For assay [9], the target named is T1, mouse IL-13. Nature of the assay: ELISA: competition with biotinylated human IL-13 for binding to IL13-0001. (ELISA stands for enzyme-linked immunosorbent assay.)
Excerpt: (§3) Recombinant human, mouse, rat, and dog IL 13 were purchased from R&D Systems (Minneapolis, MN). Recombinant sheep and rabbit IL-13 were produced by Pfizer Global Biotechnologies (PGBT, Cambridge, MA). Recombinant cynomolgus monkey IL 13 was purchased from Sino Biological (Beijing, China).
Assay [10] concerns the target T6, cynomolgus monkey IL-13. The assay is described as above.
Excerpt: as §3
For a further assay, the target named is T13, dog IL-13 (dog, UniProt Q9N0W9 19-131, limits assumed).
T13 sequence (looked up): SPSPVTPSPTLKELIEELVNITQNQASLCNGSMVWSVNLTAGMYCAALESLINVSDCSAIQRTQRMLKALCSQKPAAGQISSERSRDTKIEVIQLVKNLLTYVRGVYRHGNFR
The assay is described as above.

In assay [11] the target is T7, human IL-13. The assay can be described thus: cell-based or functional assay. This is another data set of the same source.
In assay [12] the target is T7, human IL-13. Nature of the assay: cell-based or functional assay. This is another data set of the same source.

recombinant cynomolgus monkey TSLP (Pfizer), sequence (A0A7N9CAT7 entry or part of it): as the sequence (A0A7N9CAT7 entry or part of it) above
Description for cynomolgus monkey IL-4: Samples were prepared in PBS containing 0.1% sodium azide and 1.0 mg/ml BSA. The fixed antigen assay method was used to determine binding affinity. […] Each trispecific and IL-4 cytokine were equilibrated for at least 72 hours at room temperature, then passed through a flow cell containing Polymethylmethacrylate (PMMA) beads coated with anti-hIL-4 Ab-0002 (Pfizer) that contains the same IL-4 binding domain as the trispecifics. […] Data analysis was performed with KinExA Pro software version 4.3.11 (Sapidyne). […] The ‘drift correction’ fitting option was used when responses varied between replicate injections. Two curves were obtained in independent experiments and analyzed using the ‘n-curve analysis’ tool to obtain global best fit values for the KD and active concentration of IL-4 cytokine. The software reports each best fit value along with a 95% confidence interval.
Samples were prepared in PBS containing 0.1% sodium azide and 1.0 mg/ml BSA. A fixed antigen assay method was used to determine binding affinity.
Excerpt for dog IL-13: as §3
Description for mouse IL-4: (§4) All experiments were performed using a Biacore 8K+instrument (GE HealthCare, Marlborough, MA). Anti-human Fc (Jackson Immunoresearch) or anti-mouse Fc (GE HealthCare, Marlborough, MA) was immobilized on a CM5 sensor chip using a standard amine coupling protocol provided by GE HealthCare. […] The association and dissociation phases were 60 seconds and 300 seconds, respectively. At the end of the dissociation phase, the surface containing anti-human or anti-mouse Fc was regenerated using one 30 second pulse of 3M MgCl₂ followed by one 30 second pulse of 10 mM glycine pH 1.7.
Description for murine IL-33: (§5) Experiments were done at 37° C. with a collection rate of 10 Hz using HBS-EP+ pH 7.4, containing 3 mM DTT as running and dilution buffer. […] An anti-rat and mouse positive control antibody M36 (Pfizer, L4295010-051) diluted to 10 μgs/mL was captured on flow cell 2 for 60 sec at 10 μLs/min. Flow cell 1 was used as a reference. Binding was evaluated by injecting 200 nM dilutions of each cytokine over all 4 flow cells for 60 sec at 50 μL/min followed by a 300 sec dissociation. The surface was regenerated with a single 60 sec injection of 10 mM Glycine pH 1.5 at 50 μL/min. The data was double referenced and an overlay of the resulting sensorgrams (FIG. 39) was prepared using Biacore T-200 Analysis Software version 3.2.
Description for rat IL-13: as §1
Description for rat IL-33: as §5
Description for rat IL-4: as §4

B1: IL13433-1258 (trispecific antibody)
heavy: EVQLVESGGGLVQPGGSLRLSCAASGFTFSSYWMYWVRQAPGKGLEWVAAITPNAGEDYYPESVKGRFTISRDNAKNSLYLQMNSLRAEDTAVYYCARGQYYYTKYSLGYWGQGTLVTVSSASTKGPSVFPLAPSSKSTSGGTAALGCLVKDYFPEPVTVSWNSGALTSGVHTFPAVLQSSGLYSLSSVVTVPSSSLGTQTYICNVNHKPSNTKVDKKVEPKSCRKTHTCPPCPAPEAAGAPSVFLFPPKPKDTLMISRTPEVTCVVVDVSHEDPEVKFNWYVDGVEVHNAKTKPREEQYNSTYRVVSVLTVLHQDWLNGKEYKCKVSNKALPAPIEKTISKAKGQPREPQVYTLPPSREEMTKNQVSLTCLVKGFYPSDIAVEWESNGQPENNYKTTPPVLDSDGSFFLYSRLTVDKSRWQQGNVFSCSVLHEALHSHYTQKSLSLSPGK
chain 1: DIQMTQSPSSLSASVGDRVTITCKASESVDHFGWSLVHWYQQKPGKAPKLLIYRASNLESGVPSRFSGSGSGTDFTLTISSLQPEDFATYYCQQSNEDPWTFGGGTKVEIKRTVAAPSVFIFPPSDEQLKSGTASVVCLLNNFYPREAKVQWKVDNALQSGNSQESVTEQDSKDSTYSLSSTLTLSKADYEKHKVYACEVTHQGLSSPVTKSFNRGECGGGGSEVTLRESGPALVKPTQTLTLTCTFSGFSLSNFGEGLSWIRQPPGKGLEWLAHIYWDDDKRYNPSLKSRLTISKDTSRNQVVLTMTNMDPVDTATYYCARRETVFYWYFDVWGQGTTVTVSSASTKGPSVFPLAPSSKSTSGGTAALGCLVKDYFPEPVTVSWNSGALTSGVHTFPAVLQSSGLYSLSSVVTVPSSSLGTQTYICNVNHKPSNTKVDKKVEPKSCEKTHTCPPCPAPEAAGAPSVFLFPPKPKDTLMISRTPEVTCVVVDVSHEDPEVKFNWYVDGVEVHNAKTKPREEQYNSTYRVVSVLTVLHQDWLNGKEYKCKVSNKALPAPIEKTISKAKGQPREPQVYTLPPSREEMTKNQVSLTCEVKGFYPSDIAVEWESNGQPENNYKTTPPVLDSDGSFFLYSKLTVDKSRWQQGNVFSCSVLHEALHSHYTQKSLSLSPGK
light 1: DIQMTQSPSSLSASVGDRVTITCRASQPIHNHLDWYQQKPGKAPKLLIYFGKNLQEGVPSRFSGSGSGTDFTLTISSLQPEDFATYYCFQYKKGWSFGGGTKVEIKRTVAAPSVFIFPPSDEQLKSGTASVVCLLNNFYPREAKVQWKVDNALQSGNSQESVTEQDSKDSTYSLSSTLTLSKADYEKHKVYACEVTHQGLSSPVTKSFNRGEC
light 2: DIQMTQSPSSLSASVGDRVTITCRASQSVDEEGDSYMNWYQQKPGKAPKLLIYAASNLESGVPSRFSGSGSGTDFTLTISSLQPEDFATYYCQQSNKDPPTFGGGTKVEIKRTVAAPSVFIFPPSDEQLKSGTASVVCLLNNFYPREAKVQWKVDNALQSGNSQESVTEQDSKDSTYSLSSTLTLSKADYEKHKVYACEVTHQGLSSPVTKSFNRGEC
chain 2: EVQLVESGGGLVQPGGSLRLSCAASGFTFSSYAMSWVRQAPGKGLEWVASISSGDTTYYPDSVKGRFTISRDNAKNSLYLQMNSLRAEDTAVYYCARNEGYYFGLTLWGQGTLVTVSSASTKGPSVFPLAPSSKSTSGGTAALGCLVKDYFPEPVTVSWNSGALTSGVHTFPAVLQSSGLYSLSSVVTVPSSSLGTQTYICNVNHKPSNTKVDKKVEPKSC
notes: Tri-Fab-Fc: SFab HC(3) IL-33, DFab LC(1)-HC(2) IL-13/IL-4, SFab LC(3), DFab LC(2), modified Fd(1); EE/RR, LS
Take B1: the binding result with mouse IL-13 [1], with rat IL-13, in the assay with murine IL-33, in the assay with rat IL-33, with mouse IL-4 and in the assay with rat IL-4 was “no binding (tested: 200 nM)” each time. In addition, in the assay with cynomolgus monkey IL-4, the “fold weaker than the human IL-4 affinity value” is about 6.2 fold. Moreover, the “fold of the human IL-13 affinity value” with cynomolgus monkey IL-13 [2] was at most 2 fold. In addition, the “fold IL-13 neutralization activity over dupilumab (monocyte CD23 bioassay)” value with human IL-13 [3] came out at 7.9 fold. In addition, in the assay with human IL-13 [3], the “fold lower potency than IL13-0001 (monocyte CD23 bioassay)” value was about 2.7 fold. Moreover, in the assay with human IL-4, the “fold IL-4 neutralization activity over dupilumab (monocyte CD23 bioassay)” value was about 10 fold. The “fold lower potency than mAb IL4-1040 (monocyte CD23 bioassay)” value with human IL-4 is about 3.1 fold. In addition, the “fold reduced neutralization compared to the human cytokine (monocyte CD23 bioassay)” value with cynomolgus monkey IL-13 [4] is about 4.5 fold.

B2: IL413TSLP-1024 (antibody)
heavy: not shown
light 1: SYVLTQPPSVSVAPGQTARITCGGNNLGSKSVHWYQQKPGQAPVLVVYDDKDRPSWIPERFSGSNSGNTATLTISRGEAGDEADYYCQVWDSKSDHVVFGGGTKLTVLGQPKAAPSVTLFPPSSEELQANKATLVCLISDFYPGAVTVAWKADSSPVKAGVETTTPSKQSNNKYAASSYLSLTPEQWKSHRSYSCQVTHEGSTVEKTVAPTECS
chain 1: B1 chain 1
light 2: B1 light 2
chain 2: B1 chain 2
notes: RR-EE, LS; monovalent for TSLP
One may read the Kd as the free concentration of one partner at which half of the binding sites on the other are occupied at equilibrium, for simple one-to-one binding. Turning to B2, binding in assay [5] was characterised by a dissociation constant (Kd) of 0.00303 nM. This molecule also gave a Kd in assay [6] of 0.00631 nM. Besides, in [7], the “IC50, TARC production bioassay, Human Whole Blood (median)” value was 0.0327 nM and the “IC50, TARC production bioassay, Peripheral Blood Monocytes (median)” value is 0.03 nM.

B3: IL13-0001 (antibody, human IgG1, kappa, V domains shown)
VH: EVQLVESGGGLVQPGGSLRLSCAASGFTFSSYAMSWVRQAPGKGLEWVASISSGDTTYYPDSVKGRFTISRDNAKNSLYLQMNSLRAEDTAVYYCARNEGYYFGLTLWGQGTLVTVSS
VL: DIQMTQSPSSLSASVGDRVTITCKASESVDHFGWSLVHWYQQKPGKAPKLLIYRASNLESGVPSRFSGSGSGTDFTLTISSLQPEDFATYYCQQSNEDPWTFGGGTKVEIKR
notes: also called IL13433-0001; 1RVHC9-VLA4
B3: the Kd in the assay with human IL-13 [8] was found to be 0.0577 nM. Further, the binding result in the assay with mouse IL-13 [9] is “no binding”. The binding result with cynomolgus monkey IL-13 [10] is recorded as “binds”. In addition, the binding result with dog IL-13 is recorded as “no binding”. Besides, in the assay with human IL-13 [11], the “CD23: Fold bioactivity relative to IL13-0001” value was 1 fold, the “CD23: Fold bioactivity relative to IL13-1307” value is 29.1 fold, the “CD23 IC50 [pM]” value came out at 10.5 pM and the “pSTAT6: Fold bioactivity relative to IL13-0001” value came out at 1 fold. In addition, in the assay with human IL-13 [11], the “pSTAT6: Fold bioactivity relative to IL13-1307” value turned out to be 1.5 fold and the “pSTAT6 IC50 [pM]” value amounted to 92 pM. Also, in the assay with human IL-13 [12], the “CD23: Fold versus IL13-0001” value is 1 fold and the “CD23 IC50 [pM] Ave. n = 2” value turned out to be 6 pM.
